The numbers were not newly measured in paper PMC12818570, which cites them from elsewhere.

The data set concerns the target His57 (UniProt position 57, ILPVTHTEISP). The data set is described as follows: electrophysiology (solid-supported membrane electrophysiology, SSME, on isolated lysosomes). Particulars: 90 mM NaCl + 50 mM NaCl or KCl, 5 mM MgCl2; 30 mM HEPES, 30 mM MES, titrated with HCl or NaOH; channel in lysosomal membrane, pH equilibrated symmetrically on both sides, no applied voltage.

Consider “Transmembrane protein 175 (TMEM175), endosomal/lysosomal cation channel (Homo sapiens)”, for which the pKa (commonly the pH at which an ionisable group is half protonated) is 7.0 ± 0.1.
